B3: B42-RIP13 (other, not shown: large carriers)
chain: DALAALVDAAASAPQMDVSKTKESKHEAARLEENLRSRSAAVSEQQQLEQKNLEVEKRSVQCVCTSSALPSGKAQPHASVVYSEAGKDKGPPPKSRYEEELRTRGKTTITAANFIDVTITRQIASDKDARERGSQSSDSSSSLSSHRYETASDAIEVISPASSPAPPQEKPQAYQPDMVKANQAENESTRQYEGPLHHYRSQQESPSPQQQPPLPPSSQSEGMGQVPRTHRLITLADHICQIITQDFARNQVPSQPSTSTFQTSPSALSSTPVRTKTSSRYSPESQSQTVLHPRPGPRVSPENLVDKSRGSRPGKSPERSHIPSEPYEPISPPQGPAVHEKQDSMLLLSQRGVDPAEQRSDSRSPGSISYLPSFFTKLESTSPMVKSKKQEIFRKLNSSGGGDSDMAAAQPGTEIFNLPAVTTSGAVSSRSHSFADPASNLGLEDIIRKALMGSFDDKVEDHGVVMSHPVGIMPGSASTSVVTSSEARRDEGEPSPHAGVCKPKLINKSNSRKSKSPIPGQSYLGTERPSSVSSVHSEGDYHRQTPGWAWEDRPSSTGSTQFPYNPLTIRMLSSTPPTQIACAPSAITQAAPHQQNRIWEREPAPLLSAQYETLSDSDD
B5: LexA-RXR (other, bacterial;human, UniProt P0A7C2 1-202, looked up)
chain: MKALTARQQEVFDLIRDHISQTGMPPTRAEIAQRLGFRSPNAAEEHLKALARKGVIEIVSGASRGIRLLQEEEEGLPLVGRVAAGEPLLAQQHIEGHYQVDPSLFKPNADFLLRVSGMSMKDIGIMDGDLLAVHKTQDVRNGQVVVARIDDEVTVKRLKKQGNKVELLPENSEFKPIVVDLRQQSFTIEGLAVGVIRNGDWLLAMGMKREAVQEERQRGKDRNENEVESTSSANEDMPVERILEAELAVEPKTETYVEANMGLNPSSPNDPVTNICQAADKQLFTLVEWAKRIPHFSELPLDDQVILLRAGWNELLIASFSHRSIAVKDGILLATGLHVHRNSAHSAGVGAIFDRVLTELVSKMRDMQMDKTELGCLRAIVLFNPDSKGLSNPAEVEALREKVYASLEAYCKHKYPEQPGRFAKLLLRLPALRSIGLKCLEHLFFFKLIGDTPIDTFLMEMLEAPHQMT
notes: also called Lex fusion RXR

Tests used:
LexA-RXR [1] = target: B5; test: yeast interaction trap screen; clones showing specific interaction with LexA-RXR; four clones starting at amino acid 91
Protocol: (§1) From 3×10^6 primary yeast transformants, a number of β-gal expressing colonies were identified in two independent screens carried out in the presence or absence of 9-cis-RA. Since expression of the B42-cDNA fusion proteins was induced by growth on galactose, candidates obtained from each condition were tested for galactose-dependent expression of both β-gal and LEU2, in the presence or absence of 9-cis-RA, using appropriate indicator plates (see below).
(§2) Candidates showing specific interaction with LexA-RXR were sequenced across the B42 fusion junction using an appropriate vector primer, and additional sequence was determined. The deduced amino acid sequences were compared to those in the GenBank and EMBL databases using the GCG (Devereux et al., Nucleic Acids Res. 12:387–395, 1984) and BLAST programs (Altschul et al., J. Mol. Biol. 215:403–410, 1990). […] All of these clones included intact ligand binding domains, as expected from the fact that the major heterodimerization function lies within that domain. For PPAR (Issemann et al., Nature 347:645–650, 1990), three clones started at amino acid 84, just N-terminal to the DNA binding (C) domain, four others started at 91, within the C domain, and one at 170, just past the C domain. For RAR (Leroy et al., EMBO J. 10:59–69), all six clones started at amino acid 132, within the C domain.

LexA-TR = target: T1, LexA-TR (bacterial; rat, UniProt P0A7C2 1-202; P18113 170-461, limits assumed); test: yeast interaction trap, X-gal plate, with T3; W = white (no interaction)
T1 construct: also called Lex fusion TR
T1 sequence (looked up): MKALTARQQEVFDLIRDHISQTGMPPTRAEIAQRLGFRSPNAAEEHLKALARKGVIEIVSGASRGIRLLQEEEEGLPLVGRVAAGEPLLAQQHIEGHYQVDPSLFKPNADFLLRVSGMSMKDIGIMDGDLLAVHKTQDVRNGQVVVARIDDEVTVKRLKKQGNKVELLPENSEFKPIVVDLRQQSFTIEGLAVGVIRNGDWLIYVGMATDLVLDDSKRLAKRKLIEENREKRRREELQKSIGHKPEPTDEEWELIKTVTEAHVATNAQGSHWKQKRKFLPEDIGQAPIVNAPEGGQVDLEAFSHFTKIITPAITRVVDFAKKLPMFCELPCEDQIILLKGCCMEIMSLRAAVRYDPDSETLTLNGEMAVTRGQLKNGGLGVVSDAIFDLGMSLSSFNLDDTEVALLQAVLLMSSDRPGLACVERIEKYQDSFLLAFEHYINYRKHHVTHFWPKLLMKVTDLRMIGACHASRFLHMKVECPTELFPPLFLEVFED
Protocol: (§3) Interactions of the RIP clones with other superfamily members, including RAR, TR, the glucocorticoid receptor (GR), and MB67, an orphan isolated in this lab (Baes et al., Mol. Cell. Biol. 14:1544–1552, 1994) were also tested using a series of appropriate LexA fusions. In particular, the experiments shown in Table 1 were carried out as follows. Yeast transformants containing a lacZ reporter gene under the control of LexA binding sites and the indicated B42- and Lex-fusion protein expression vectors were transferred onto galactose-Ura⁻His⁻Trp⁻ plates containing X-gal and incubated for two days. Relative levels of β-galactosidase activity were estimated and are depicted as follows: B, blue (strong interaction); LB, light blue (weak interaction); W, white (no interaction); nt, not tested. At least three separate colonies were tested on the same plate for interaction. To test the effects of ligands, 100 µl of a 10^-6M solution of the appropriate ligand was spread onto plates just before inoculation of cells (9-cis-RA for RXR, T3 for TR, and all-trans-RA for RAR). For B42-PPAR, the plasmid isolated from the screening was used. Both full length and truncated RAR fusions to LexA were tested with identical results for all the B42 fusions except B42-110, which was tested only with the full length fusion.

LexA-RXR [2] = target: B5; test: cell-based or functional assay
LexA-RXR [3] = target: B5; test: yeast interaction trap screen; clones showing specific interaction with LexA-RXR; three clones starting at amino acid 84
Protocol: as §1, §2

B42-RIP110 = target: T2, B42-RIP110 (mouse, UniProt Q5U5Q9 20-727); test: yeast interaction trap, X-gal plate, with 9-cis-RA; B = blue (strong interaction)
T2 construct: Clone from a mouse liver cDNA library fused to B42; also called B42-110; B42 fusion 110
T2 sequence: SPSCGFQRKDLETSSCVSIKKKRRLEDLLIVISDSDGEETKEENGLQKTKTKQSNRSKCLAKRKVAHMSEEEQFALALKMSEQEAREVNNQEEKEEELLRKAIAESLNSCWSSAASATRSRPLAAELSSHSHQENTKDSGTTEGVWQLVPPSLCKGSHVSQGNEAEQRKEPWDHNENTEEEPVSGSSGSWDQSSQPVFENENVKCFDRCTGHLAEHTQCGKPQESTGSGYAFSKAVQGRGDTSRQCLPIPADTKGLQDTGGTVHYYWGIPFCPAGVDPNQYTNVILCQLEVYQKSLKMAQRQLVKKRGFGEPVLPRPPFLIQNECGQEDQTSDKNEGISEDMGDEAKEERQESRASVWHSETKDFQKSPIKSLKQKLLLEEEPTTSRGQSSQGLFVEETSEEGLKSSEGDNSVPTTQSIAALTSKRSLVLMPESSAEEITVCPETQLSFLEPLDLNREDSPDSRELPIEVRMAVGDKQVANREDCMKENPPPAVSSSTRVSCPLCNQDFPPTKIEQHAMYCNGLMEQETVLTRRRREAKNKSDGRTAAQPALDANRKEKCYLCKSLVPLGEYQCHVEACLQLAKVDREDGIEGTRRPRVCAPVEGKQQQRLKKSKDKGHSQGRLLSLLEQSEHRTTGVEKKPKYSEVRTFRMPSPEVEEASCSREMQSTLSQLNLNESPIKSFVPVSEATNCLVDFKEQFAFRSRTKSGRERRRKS
Protocol: as §3

B42-RIP13 = target: B3; test: as above
Protocol: as §3

B1: B42-PPAR clone starting at amino acid 91 (other, mouse, UniProt P23204 91-468, looked up, not shown: large carriers)
chain: DESPGSALNIECRICGDKASGYHYGVHACEGCKGFFRRTIRLKLVYDKCDRSCKIQKKNRNKCQYCRFHKCLSVGMSHNAIRFGRMPRSEKAKLKAEILTCEHDLKDSETADLKSLGKRIHEAYLKNFNMNKVKARVILAGKTSNNPPFVIHDMETLCMAEKTLVAKMVANGVEDKEAEVRFFHCCQCMSVETVTELTEFAKAIPGFANLDLNDQVTLLKYGVYEAIFTMLSSLMNKDGMLIAYGNGFITREFLKNLRKPFCDIMEPKFDFAMKFNALELDDSDISLFVAAIICCGDRPGLLNIGYIEKLQEGIVHVLKLHLQSNHPDDTFLFPKLLQKMVDLRQLVTEHAQLVQVIKKTESDAALHPLLQEIYRDMY
notes: range 91-C-terminus; Only the start is stated; also called PPAR (four clones)
LexA-RXR [1]
  binding result: binds

B2: B42-PPAR (plasmid isolated from the screening, as used in Table 1) (other, mouse, UniProt P23204 91-468, looked up, not shown: large carriers)
chain: DESPGSALNIECRICGDKASGYHYGVHACEGCKGFFRRTIRLKLVYDKCDRSCKIQKKNRNKCQYCRFHKCLSVGMSHNAIRFGRMPRSEKAKLKAEILTCEHDLKDSETADLKSLGKRIHEAYLKNFNMNKVKARVILAGKTSNNPPFVIHDMETLCMAEKTLVAKMVANGVEDKEAEVRFFHCCQCMSVETVTELTEFAKAIPGFANLDLNDQVTLLKYGVYEAIFTMLSSLMNKDGMLIAYGNGFITREFLKNLRKPFCDIMEPKFDFAMKFNALELDDSDISLFVAAIICCGDRPGLLNIGYIEKLQEGIVHVLKLHLQSNHPDDTFLFPKLLQKMVDLRQLVTEHAQLVQVIKKTESDAALHPLLQEIYRDMY
notes: 'For B42-PPAR, the plasmid isolated from the screening was used'; also called B42 fusion PPAR
LexA-TR
  binding result: no binding

## B3
LexA-RXR [2]
  β-gal expression (lacZ reporter under LexA binding sites, yeast liquid culture): ~3 fold

B4: B42-PPAR clone starting at amino acid 84 (other, mouse, UniProt P23204 84-468, looked up, not shown: large carriers)
chain: PVIPASTDESPGSALNIECRICGDKASGYHYGVHACEGCKGFFRRTIRLKLVYDKCDRSCKIQKKNRNKCQYCRFHKCLSVGMSHNAIRFGRMPRSEKAKLKAEILTCEHDLKDSETADLKSLGKRIHEAYLKNFNMNKVKARVILAGKTSNNPPFVIHDMETLCMAEKTLVAKMVANGVEDKEAEVRFFHCCQCMSVETVTELTEFAKAIPGFANLDLNDQVTLLKYGVYEAIFTMLSSLMNKDGMLIAYGNGFITREFLKNLRKPFCDIMEPKFDFAMKFNALELDDSDISLFVAAIICCGDRPGLLNIGYIEKLQEGIVHVLKLHLQSNHPDDTFLFPKLLQKMVDLRQLVTEHAQLVQVIKKTESDAALHPLLQEIYRDMY
notes: range 84-C-terminus; Only the start is stated; also called PPAR (three clones)
LexA-RXR [3]
  binding result: binds

## B5
B42-RIP110
  binding result: binds
B42-RIP13
  binding result: binds

Source: patent publication US7115711 (GENERAL HOSPITAL, dated 2006)
